Assay results published in US20240209086A1 (PETMEDIX, published 2024).

Molecular target: T1, canine CD20 on cells (HEK293, MDCK II, CLBL-1 or native B cells) (canine, UniProt Q3C2E2 1-297)
T1 construct: also called dCD20; cCD20
T1 chain: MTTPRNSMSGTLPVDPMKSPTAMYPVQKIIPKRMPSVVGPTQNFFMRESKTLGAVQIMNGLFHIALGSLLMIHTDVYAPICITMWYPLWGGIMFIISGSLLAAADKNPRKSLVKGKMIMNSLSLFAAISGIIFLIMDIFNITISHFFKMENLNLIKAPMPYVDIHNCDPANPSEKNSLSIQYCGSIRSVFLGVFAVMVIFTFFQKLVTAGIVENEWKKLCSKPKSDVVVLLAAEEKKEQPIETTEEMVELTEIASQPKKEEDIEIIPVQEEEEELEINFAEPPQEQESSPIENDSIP
Assay: flow cytometry, canine CD20 HEK293 cells, 10 µg/ml, FITC anti-canine IgG
Method: A CD20 binding screen was performed on candidate proteins produced from the canine CD20 immunisation as described in Examples 2 and 3. CHO cells supernatants containing candidate antibodies were diluted to 10 μg/ml in FACS buffer (PBS containing 3% FBS) and screened for their ability to bind canine CD20 expressed on cell surface. In brief, 1-2×10⁵ canine CD20-expressing HEK cells were incubated with candidate mAbs for one hour at 4° C., at a fixed concentration of 10 μg/ml followed by incubation with 5 μg/ml of FITC-conjugated anti-canine IgG secondary antibody (Bethyl Laboratories) for 1 hour at 4° C. Cells incubated with anti-canine IgG FITC secondary antibody and without primary anti-canine CD20 antibody, or with isotype control primary antibody, were used as negative controls. The data were acquired on either a Beckman Coulter CytoFLEX or a BD Accuri C6 Plus flow cytometer and analysed using FlowJo software.

B1: PMX268 (monospecific anti-canine CD20, canine IgG-B, lambda C5) (antibody, V domains shown)
VH: EVQLVESGGDLMKPGGSLRLSCVASGITFSGYHMSWVRQAPGKGLQWVAFINSGRKNTAYADAVKGRFTISRDNAKNTLYLQMNSLRAEDTAIYYCTTLEFWGQGTLVTVSS
VL: SYVLTQLPSKNVTLKQPAHITCGGDNIGSKNVHWYQQKLGQAPVLIIYYDSRRPTGIPERFSGVNSGNTATLTINGALAEDEADYYCQMWDSSANVFGGGTHLTVLG
Q: Does B1 bind?
A: binds

B2: PMX269 (monospecific anti-canine CD20, canine IgG-B, lambda C5) (antibody, V domains shown)
VH: EVRLVESGGDLVKPGGSLRLSCVASGLTFNRYYMSWVRQGPGKGLQWVAYIDSGGSPTTYADTVKGRFTISRDNAKNTLYLQMNSLRVEDTAVYYCTTLEYWGQGTLVTVSS
VL: SYVLTQLPSKNVTLKQPAHITCGGDNIGSKSVHWYQQKLGQAPVLIIYYDSSRPTGIPERFSGANSGNTATLTISGALAEDEADYYCQVWDTSANVFGGGTHLTVLG
Q: Does B2 bind?
A: binds

B3: PMX270 (monospecific anti-canine CD20, canine IgG-B, lambda C5) (antibody, V domains shown)
VH: EVQLVESGGDLVKPGGSLRLSCVASGFTFSRYYMTWVRQAPGKGLQWVAYINSDRRSTTYADAVKGRFTISRDNAKNTLYLQMNSLRAEDTAVYYCTTLEYWGQGTLVTVSS
VL: SYVLTQLPSKNVTLKQPAHITCGGDNIGSKSVHWYQQKLGQAPVLIIYYDSRRPTGIPERFSGANSGNTATLTINGALAEDEADYYCQVWDSSANVFGGGTHLTVLG
Q: Does B3 bind?
A: binds

B4: PMX271 (monospecific anti-canine CD20, canine IgG-B, lambda C5) (antibody, V domains shown)
VH: AVQLVESGGDLVKPGGSLRLSCVASGITFSRYHMSWVRQAPGKGLQWVAYINSGGSATSYTDAVKGRFSISRDNGKNTLYLQMNSLRVEDSAVYYCTTLDLWGQGTLVTVSS
VL: SYVLTQLPSKNVTLKQPAHITCGGDNIGSKSVHWYQQKLGQAPVLIIYYDSRRPTGIPERFSGANSGNTATLTINGALAEDEADYYCQMWDSSANVFGGGTHLTVLG
Q: Does B4 bind?
A: binds
